In patent US20230406901A1:

Biological target: growth hormone receptor (GHR) on BAF3/GHR cells
Test: cell-based or functional assay

EC50(nM), proliferation of BAF3/GHR cells (Alamar-Blue): 3.19 nM
Relative potency, proliferation of BAF3/GHR cells (Alamar-Blue): 37.7%
Substance: growth hormone fusion protein containing a flexible linker, GH(GGGGS)4 (from UniProt P01861 100-325) (Fc fusion)
